Target: the molecule itself
Test: cryo-EM structure; purified TraT (12 mg/ml) in 100 mM Tris, 150 mM NaCl, 0.02% DDM, pH 8; global resolution 2.01 Å

B1: F plasmid TraT complex (Twin-Strep tagged recombinant TraT) (complex, Escherichia coli (F plasmid), UniProt P13979 22-244, looked up)
chain: CGAMSTAIKKRNLEVKTQMSETIWLEPASERTVFLQIKNTSDKDMSGLQGKIADAVKAKGYQVVTSPDKAYYWIQANVLKADKMDLRESQGWLNRGYEGAAVGAALGAGITGYNSNSAGATLGVGLAAGLVGMAADAMVEDVNYTMITDVQIAERTKATVTTDNVAALRQGTSGAKIQTSTETGNQHKYQTRVVSNANKVNLKFEEAKPVLEDQLAKSIANIL
modifications: lipid anchor on the N-terminal cysteine (density not resolved)
notes: TraT surface exclusion outer membrane lipoprotein of the E. coli F plasmid; the traT gene was cloned into a pET22b-derived vector; the protein in the structure begins at the lipidated N-terminal cysteine; Homodecamer by cryo-EM; also called TraTF; TraT-TS; copies: 10
stoichiometry N: 10

— publication doi:10.1101/2025.05.27.656304, “Structure of the conjugation surface exclusion protein TraT” (bioRxiv, 2025)
